Measurements from patent US7179886B1, “Cloning and identification of the motilin receptor” (Merck & Co., Inc., priority 1999, dated 2007).
No end group written: not given here. *: point of attachment. 125I = [125I]*

B1: 1-12 MTL (peptide, UniProt P12872 26-37, looked up)
peptide: FVPIFTYGELQR
notes: range 1-12; The range counts on mature motilin, not on the precursor entry
B2: 1-19 MTL (peptide, UniProt P12872 26-44, looked up)
peptide: FVPIFTYGELQRMQEKERN
notes: range 1-19; The range counts on mature motilin, not on the precursor entry
B3: Leu13 MTL (peptide, UniProt P12872 26-47, looked up)
peptide: FVPIFTYGELQRLQEKERNKGQ
notes: mature; Position 13 counts on the mature peptide, not on the precursor
B4: 10-22 MTL (peptide, UniProt P12872 35-47, looked up)
peptide: LQRMQEKERNKGQ
notes: range 10-22; The range counts on mature motilin, not on the precursor entry
B5: 1-13 MTL (peptide, UniProt P12872 26-38, looked up)
peptide: FVPIFTYGELQRM
notes: range 1-13; The range counts on mature motilin, not on the precursor entry
B6: 1-11 MTL (peptide, UniProt P12872 26-36, looked up)
peptide: FVPIFTYGELQ
notes: range 1-11; The range counts on mature motilin, not on the precursor entry

Key:
[1] = biological target: T1, Cloned MTL-1A Receptor (human) (Homo sapiens, UniProt O43193); test: [^125I] human motilin binding to crude membranes from HEK-293/aeq17 cells transfected with MTL-R1A cDNA; settings: for IC50: competition binding, crude membranes, 20° C. for 1 hr., read-out: [^125I] hmotilin binding (IC50)
T1 construct: The full length open reading frame appears to contain 412 amino acids; expressed in transfected cells; host or cells: HEK-293/aeq17 (293-AEQ17), transient transfection with lipofectamine
Method: Crude cell membranes were prepared on ice, 48 hrs. post-transfection. […] Bound radioligand was separated by rapid vacuum filtration (Brandel 48-well cell harvester) through GF/C filters pretreated for 1 hr. with 0.5% polyethylenimine.

[2] = biological target: T1, Cloned MTL-1A Receptor (human); test: Aequorin bioluminescence assay in HEK-293/aeq17 cells transfected with MTL-R1A; assay type: cell-based; settings: for EC50: HEK-293/aeq17 cells transfected with human MTL-R1A; for activity in MTL1-A functional and binding assays: high (10 μM) doses, statement covers functional and binding assays
Description: A high-throughput assay was developed which measures Ca^2+realease with the bioluminescent Ca^2+sensitive-aequorin reporter protein (capable of measuring ligand-induced IP3-coupled mobilization of intracellular calcium and concomitant calcium-induced aequorin bioluminescence). […] The DNA and deduced amino acid sequence are given in SEQ. ID. NO.:2 and SEQ. ID. NO.:3, respectively.
To identify a ligand for this orphan GPCR and to determine whether the full length, 7 TM domain GPR38-A is a functional GPCR, a high-throughput assay was developed which measures Ca^2+ release with the bioluminescent Ca^2+ sensitive aequorin reporter protein (capable of measuring ligand-induced IP3-coupled mobilization of intracellular calcium and concomitant calcium-induced aequorin bioluminescence).
A broad set of peptide and non-peptide molecules was tested at a single concentration in transiently transfected HEK-293/aeq17 cells (100 nM peptide, 10 μM non-peptide).
The aequorin bioluminescence assay is a reliable test for identifying G protein-coupled receptors which couple through the Gα protein subunit family consisting of Gq and G11 which leads to the activation of phospholipase C, mobilization of intracellular calcium and activation of protein kinase C. Measurement of MTL-1A expression in the aequorin-expressing stable reporter cell line 293-AEQ17 (Button, D. et. al., 1993 Cell Calcium 14: p. 663–671.) was performed using a Luminoskan RT luminometer (Labsystems Inc., Gaithersburg, Md.).
293-AEQ17 cells (8×10^5 cells plated 18 hrs. before transfection in a T75 flask) were transfected with 22 μg of human MTL-R1A plasmid DNA: 264 μg lipofectamine. Following approximately 40 hours of expression the apo-aequorin in the cells was charged for 4 hours with coelenterazine (10 μM) under reducing conditions (300 μM reduced glutathione) in ECB buffer (140 mM NaCl, 20 mM KCl, 20 mM HEPES—NaOH [pH=7.4], 5 mM glucose, 1 mM MgCl2, 1 mM CaCl2, 0.1 mg/ml bovine serum albumin). The cells were harvested, washed once in ECB medium and resuspended to 500,000 cells/ml. 100 μl of cell suspension (corresponding to 5×10^4 cells) was then injected into the test plate, and the integrated light emission was recorded over 30 seconds, in 0.5 second units. 20 μL of lysis buffer (0.1% final Triton X-100 concentration) was then injected and the integrated light emission recorded over 10 seconds, in 0.5 second units. The “fractional response” values for each well were calculated by taking the ratio of the integrated response to the initial challenge to the total integrated luminescence including the Triton X-100 lysis response.

[3] = tested on: cells that were not transfected with the MTL-R1A cDNA expression vector; test: Aequorin bioluminescence assay in non-transfected cells; assay type: cell-based, human; settings: concentrations as high as 10 μM
[4] = biological target: T2, motilin receptor spliced form A (MTL-R1A), human (human, UniProt O43193 1-412); test: cell-based or functional assay
[5] = biological target: T2, motilin receptor spliced form A …; test: displacement of [125I] human motilin from crude membranes of MTL-R1A transfected HEK-293/aeq17 cells
Method: Crude cell membranes were prepared on ice, 48 hrs. post-transfection. Each T-75 flask was washed twice with 10 ml of PBS, once with 1 ml homogenization buffer (50 mM Tris-HCl [pH 7.4], 10 mM MgCl_2. 10 ml of homogenization buffer was added to each flask, cells were removed by scraping and then homogenized using a Polytron device (Brinkmann, Syosset, N.Y.; 3 bursts of 10 sec. at setting 4). The homogenate was centrifuged for 20 min. at 11,000×g at 0° C. and the resulting crude membrane pellet (chiefly containing cell membranes and nuclei) was resuspended in homogenization buffer supplemented with 1.5% BSA (0.5 ml T75 flask) and kept on ice.
Bound radioligand was separated by rapid vacuum filtration (Brandel 48-well cell harvester) through GF/C filters pretreated for 1 hr. with 0.5% polyethylenimine. After application of the membrane suspension to the filter, the filters were washed 3 times with 3 ml each of ice-cold 50 mM Tris-HCl [pH 7.4], 10 mM MgCl_2, and the bound radioactivity on the filters was quantitated by gamma counting. […] Competition binding data were analyzed by a non-linear curve-fitting program (Prism V, version 2.0; GraphPad Software, San Diego, Calif.).

[6] = biological target: T2, motilin receptor spliced form A …; test: direct radioligand binding on cell membranes from transfected cells
[7] = biological target: T2, motilin receptor spliced form A …; test: cell-based or functional assay; remark: listed apart in the source

T1 sequence (O43193 whole entry): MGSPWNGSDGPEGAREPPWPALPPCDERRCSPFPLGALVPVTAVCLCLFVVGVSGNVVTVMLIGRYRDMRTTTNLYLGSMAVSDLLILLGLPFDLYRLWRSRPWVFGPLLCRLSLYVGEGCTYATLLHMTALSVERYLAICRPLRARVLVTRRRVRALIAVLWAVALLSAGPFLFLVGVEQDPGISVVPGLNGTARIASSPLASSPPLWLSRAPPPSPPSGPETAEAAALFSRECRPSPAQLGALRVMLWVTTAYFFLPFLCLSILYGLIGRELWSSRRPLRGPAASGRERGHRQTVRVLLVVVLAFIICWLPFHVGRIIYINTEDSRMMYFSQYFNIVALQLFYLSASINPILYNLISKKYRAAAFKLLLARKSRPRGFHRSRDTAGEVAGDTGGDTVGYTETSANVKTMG
T2 sequence (O43193 whole entry, canonical isoform): as the sequence (O43193 whole entry) above

Row | Molecule | Aequorin Assay (EC50 nM) [4] | IC50 [5] | also measured
1 | Nc1nc2c(ncn2[C@@H]2O[C@H](COP(=O)(O)OP(=O)(O)OP(O)(O)=S)[C@@H](O)[C@H]2O)c(=O)[nH]1 [GTPγS] |  |  | inhibition of [^125I] human motilin binding ([1]; 100 nM GTPγS): > 80%
2 | COc1cc(N)c(Cl)cc1C(=O)NC1CCN(CCCOc2ccc(F)cc2)CC1OC (centres unmarked) [cisapride] |  |  | EC50 [2]: > 10000 nM; activity in MTL1-A functional and binding assays [2]: inactive; IC50 [1]: > 10000 nM
3 | CC[C@H](C)[C@H](NC(=O)[C@@H]1CCCN1C(=O)[C@@H](NC(=O)[C@@H](N)Cc1ccccc1)C(C)C)C(=O)N[C@@H](Cc1ccccc1)C(=O)N[C@H](C(=O)N[C@@H](Cc1ccc(O)cc1)C(=O)NCC(=O)N[C@@H](CCC(=O)O)C(=O)N[C@@H](CC(C)C)C(=O)N[C@@H](CCC(N)=O)C(=O)N[C@@H](CCCNC(=N)N)C(=O)N[C@@H](CCSC)C(=O)N[C@@H](CCC(N)=O)C(=O)N[C@@H](CCC(=O)O)C(=O)N[C@@H](CCCCN)C(=O)N[C@@H](CCC(=O)O)C(=O)N[C@@H](CCCNC(=N)N)C(=O)N[C@@H](CC(N)=O)C(=O)N[C@@H](CCCCN)C(=O)NCC(=O)N[C@@H](CCC(N)=O)C(=O)O)[C@@H](C)O [human motilin] |  |  | bioluminescent response in non-transfected cells [3]: no bioluminescent response above background levels
4 | CCN(CC)CCNC(=O)c1cc(Cl)c(N)cc1OC [metoclopramide] |  |  | EC50 [2]: > 10000 nM; activity in MTL1-A functional and binding assays [2]: inactive; IC50 [1]: > 10000 nM
5 | CC[C@H]1OC(=O)[C@H](C)[C@@H](O[C@H]2C[C@@](C)(OC)[C@@H](O)[C@H](C)O2)[C@H](C)[C@@H](O[C@@H]2O[C@H](C)C[C@H](N(C)C)[C@H]2O)[C@](C)(O)C[C@@H](C)/C(=N\OCOCCOC)[C@H](C)[C@@H](O)[C@]1(C)O [roxithromycin] |  |  | EC50 [2]: 1950 nM; IC50 [1]: 613 nM
6 | FVPIFTHSELQKIREKERNKGQ [canine motilin] |  |  | IC50 [1]: 0.2 nM
7 | B1 | 72 nM | 14 nM | 
8 | B2 | 4.1 nM | 0.3 nM | 
9 | FVPIFTY(125I)GELQRMQEKERNKGQ (peptide, UniProt P12872 26-47, looked up, mature) [[125I]-Tyr7-human motilin] |  |  | Kd [6]: 0.1 nM
10 | B3 | 3.9 nM | 0.2 nM | 
11 | FVPIFTYGELQRMQEKERNKGQ (peptide, UniProt P12872 26-47, looked up) [human motilin] |  |  | bioluminescent response (aequorin assay, 100 nM peptide, transfected HEK-293/aeq17 cells) [7]: > 4 fold over background
12 | FVPIFTHSELQKIREKERNKGQ (peptide, UniProt P19863 1-22, looked up) [canine motilin] | 4.4 nM |  | 
13 | B4 | > 10000 nM | 1100 nM | 
14 | B5 | 3.8 nM | 0.9 nM | 
15 | B6 | 138 nM | 127 nM | 
